# Reference: PMC5473137, “Structure of a SMG8–SMG9 complex identifies a G-domain heterodimer in the NMD effector proteins” (RNA, 2017)
# T1: C. elegans SMG8c (SMG8 residues 1-423) (C. elegans, UniProt O62301 1-423)
# T1 construct: SMG8, C. elegans, full length 873 residues; core fragment residues 1-423 (G-like domain and stalk); Selenomethionine-substituted protein (about 60% incorporation) was used for phasing; native crystals were soaked with GDP; SMG8 was insoluble when expressed in isolation; also called C.e; SMG8 1-423; CeSMG8
# T1 sequence (looked up): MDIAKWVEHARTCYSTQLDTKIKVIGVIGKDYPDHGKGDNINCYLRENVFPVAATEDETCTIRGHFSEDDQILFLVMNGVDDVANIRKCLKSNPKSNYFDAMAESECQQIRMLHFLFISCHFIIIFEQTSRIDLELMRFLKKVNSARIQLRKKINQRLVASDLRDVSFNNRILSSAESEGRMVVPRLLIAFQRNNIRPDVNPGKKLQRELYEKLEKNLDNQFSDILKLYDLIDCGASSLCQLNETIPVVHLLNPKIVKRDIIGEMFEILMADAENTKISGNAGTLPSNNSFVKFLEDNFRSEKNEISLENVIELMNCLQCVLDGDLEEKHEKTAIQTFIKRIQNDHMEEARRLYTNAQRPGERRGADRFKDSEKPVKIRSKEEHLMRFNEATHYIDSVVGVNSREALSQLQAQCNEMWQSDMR
# Target: T1, C. elegans SMG8c (SMG8 residues 1-423)
# Assay: crystal structure; coexpressed and co-purified SMG8c-SMG9c core complex; vapor diffusion, 10% PEG3350, 0.1M Tris pH 8.5, 0.11 mM YCl3; SeMet crystals (2.5 Å) and native crystals soaked with 10 mM GDP (2.65 Å); three copies of the complex in the asymmetric unit
# Details: both partners purified
binder,measurement,value
"C. elegans SMG9c (SMG9 residues 59-375) (domain or fragment, UniProt Q9XWJ1 59-375, looked up, SMG9, C. elegans, full length 385 residues; core fragment residues 59-375 (G domain); Selenomethionine-substituted protein (about 60% incorporation) was used for phasing; native crystals were soaked with GDP; also called C.e; SMG9 59-375; CeSMG9c) MKESVRFLTDFGEISDAISDLLTSSPNFNVISAIGPQGAGKSTLLSMLAGNNSRQMYREYVFRPVSREANEQSRHQTIQIDIYIVNHQIFLDCQPMYSFSIMEGLPKVRGGRFDDSTAMSDTLRLTAFLLYVSHTVLVVSETHYDKVIIDTLRVAEQIRPYLAIFRPKLAIDRKTNLVFIKTKASSIDLAPTVIREREELLRLSFQDSRWLKVSQEPFKTLIVLEEIRVRREHLFEEGDEPDEAASLNEFDEQIAELREELQKNREDFTVETAAMDEKKWLDMCREVIRDKTLHKTLKEYQRAMTDGVRTHFDNGFH",binding result,binds
